Columns and labels:
[1] = Spectroscopic characterization of purified Arch WT and D95N; type: physicochemical
Procedure: FIGS. 17A-17C show pH-dependent spectra of Arch 3 WT and D95N. […] At neutral pH, Arch absorbed maximally at 558 nm. Fluorescence emission (dashed line) was recorded on 2 μM protein solubilized in 1% DM, with λexc=532 nm. […] The absorption maximum was at 585 nm. […] Singular Value Decomposition of absorption spectra between 400-750 nm was used to calculate the fraction of the SB in the protonated state as a function of pH. The result was fit to a Hill function to determine the pKa of the SB.
Arch and its D95N mutant were expressed and purified from E. coli, following Bergo, V., et al. (Conformational changes detected in a sensory rhodopsin II-transducer complex. J. Biol. Chem. 278, 36556-36562 (2003)). Briefly, E. coli (strain BL21, pet28b plasmid) was grown in 1 L of LB with 100 μg/mL kanamycin, to an O.D 600 of 0.4 at 37° C. All-trans retinal (5 μM) and inducer (IPTG 0.5 mM) were added and cells were grown for an additional 3.5 hours in the dark. Cells were harvested by centrifugation and resuspended in 50 mM Tris, 2 mM MgCl2 at pH 7.3 and lysed with a tip sonicator for 5 minutes. The lysate was centrifuged and the pellet was resuspended in PBS supplemented with 1.5% dodecyl maltoside (DM). The mixture was homogenized with a glass/teflon Potter Elvehjem homogenizer and centrifuged again. The supernatant was concentrated and washed using a centricon 30k MWCO filter to a final volume of 3 mL.
The absorption spectra of purified Arch 3 WT and D95N were determined using an Ocean Optics USB4000 spectrometer with a DT-MINI-2-GS light source. Absorption spectra, for Arch 3 WT and D95N, were measured as a function of pH between pH 6 and 11. To determine the fluorescence emission spectra, proteins in a quartz cuvette were illuminated with the uncollimated beam of a 100 mW, 532 nm laser (Dragon Lasers, 532GLM100) or a 25 mW, 633 nm HeNe laser (Spectra-Physics). Scattered laser light was blocked with a 532 nm Raman notch filter (Omega Optical, XR03) or a 710/100 emission filter (Chroma), and fluorescence was collected perpendicular to the illumination with a 1000 micron fiber, which passed the light to an Ocean Optics QE65000 spectrometer. Spectra were integrated for 2 seconds.
The fluorescence quantum yields of Arch 3 WT and D95N were determined by comparing the integrated emission intensity to emission of a sample of the dye ALEXA FLUOR® 647 Conjugate. Briefly, the concentrations of micromolar solutions of dye and protein were determined using a visible absorption spectrum. […] The fluorescence emission spectra of dye and protein samples were measured with 633 nm excitation. The quantum yield was then determined by the formula
where Fl is the integrated fluorescence from 660 to 760 nm, ε is the extinction coefficient at 633 nm and c is the concentration.

[2] = tested on: cultured rat hippocampal neurons; assay: Optical recording of action potentials under whole cell current clamp; type: cell-based
Excerpt: We tested Arch 3 as a voltage indicator in cultured rat hippocampal neurons, using viral delivery. […] Individual spikes were accompanied by clearly identifiable increases of fluorescence (FIG. 7A). At a 2 kHz image acquisition rate, the signal-to-noise ratio in the fluorescence (spike amplitude:baseline noise) was 10.5.
Simultaneous fluorescence and whole-cell patch clamp recordings were acquired on a home-built, inverted epifluorescence microscope at room temperature. A diode laser operating at 100 mW, 640 nm (CrystaLaser, DL638-100-O) provided wide-field illumination at an intensity typically between 500-2000 W/cm^2. To minimize background signal from out-of-focus debris, illumination was often performed in through-the-objective total internal reflection fluorescence (TIRF) mode. Fluorescence emission was collected using a 60×, 1.45 NA oil immersion objective (Olympus), and separated from scattered excitation using a 660-760 nm bandpass emission filter (Chroma). For fast imaging of dynamic fluorescence responses and action potentials, images were acquired on an Andor iXon^+ 860 camera operating at up to 2,000 frames/s (using a small region of interest and pixel binning). Slower images with higher spatial resolution were acquired on an Andor iXon^+ 897 EMCCD. Custom software written in LabView (National Instruments) was used to synchronize illumination, collection of images, recording of membrane potential and cell current, and application of electrical stimuli to the cell.
E18 rat hippocampi were purchased from BrainBits and mechanically dissociated in the presence of 1 mg/mL papain (Worthington) before plating at 5,000-30,000 cells per dish on poly-L-lysine and Matrigel-coated (BD Biosciences) glass-bottom dishes. Cells were incubated in N+ medium (100 mL Neurobasal medium, 2 mL B27 supplement, 0.5 mM glutamine, 25 μM glutamate, penicillin-streptomycin) for 3 hours. […]
A spike identification algorithm was developed that could be applied either to electrically recorded V(t) or to optically determined V(t). […]

[3] = Relative photostability of Arch 3 and eGFP in Arch 3-eGFP fusion; type: physicochemical
Procedure: To perform a direct comparison of photostability of Arch 3 and eGFP we studied the photobleaching of the Arch 3-eGFP fusion. This strategy guaranteed a 1:1 stoichiometry of the two fluorophores, simplifying the analysis. The experiments were performed on permeabilized cells, in the microscope, with video recording as the cells photobleached. We first recorded a movie of photobleaching of Arch 3 under 640 nm illumination; then on the same field of view we recorded photobleaching of eGFP under 488 nm illumination, with illumination intensity adjusted to yield approximately the same initial count rate as for Arch 3. Fluorescence background levels were obtained from nearby protein-free regions of each movie and were subtracted from the intensity of the protein-containing regions. The area under each photobleaching timetrace was calculated, yielding an estimate of the total number of detected photons from each fluorophore. The eGFP emission (λmax=509 nm) and the Arch emission (λmax=687 nm) were collected through different emission filters, so the raw counts were corrected for the transmission spectra of the filters and the wavelength-dependent quantum yield of the EMCCD camera. The result was that the relative number of photons emitted prior to photobleaching for eGFP:Arch 3 WT was 3.9:1, and for eGFP:Arch D95N this ratio was 10:1.

B1: Arch 3 WT: Archaerhodopsin 3, light-driven proton pump from Halorubrum sodomense, used as fluorescent voltage indicator (protein)
chain: MDPIALQAGYDLLGDGRPETLWLGIGTLLMLIGTFYFLVRGWGVTDKDAREYYAVTILVPGIASAAYLSMFFGIGLTEVTVGGEMLDIYYARYADWLFTTPLLLLDLALLAKVDRVTIGTLVGVDALMIVTGLIGALSHTAIARYSWWLFSTICMIVVLYFLATSLRSAAKERGPEVASTFNTLTALVLVLWTAYPILWIIGTEGAGVVGLGIETLLFMVLDVTAKVGFGFILLRSRAILGDTEAPEPSAGADVSAAD
modifications: Halorubrum sodomense
notes: Archaerhodopsin 3, light-driven proton pump from Halorubrum sodomense, used as fluorescent voltage indicator
Question: With B1 as the molecule, how does the ε633 ([1]; calibrated assuming peak extinction coefficient of Bacteriorhodopsin, 63,000 M^−1 cm^−1) read?
Answer: Its ε633 is 6,300 M^−1cm^−1.

Question: And the QY ([1]; comparison to Alexa 647, excitation at 633 nm, listed as Arch WT)?
Answer: The QY was 9 × 10^−4.

Question: And the “signal-to-noise ratio in the fluorescence (spike amplitude:baseline noise)” value ([2]; 2 kHz image acquisition rate)?
Answer: Its value is 10.5.

Question: And the false-positive rate ([2]; n=269 spikes)?
Answer: Its false-positive rate is 0.7%.

Question: And the “change in resting potential or spike frequency during observation” value ([2]; up to 4 minutes of cumulative exposure)?
Answer: Its value is “no detectable change in resting potential or spike frequency”.

Question: And the “photons prior to photobleaching relative to eGFP” value [3]?
Answer: The value was “approximately 25%”.

Reference: patent publication US9057734B2, “Optogenetic probes for measuring membrane potential” (President and Fellows of Harvard College, priority 2010, dated 2015)
